According to paper PMC8605023 (Nature Communications, 2021):
Read-outs that look alike come from different tables or passages of the source. Ends that are not written are not given here. * marks the point of attachment. FITC = O=C1OC2(c3ccc(O)cc3Oc3cc(O)ccc32)c2ccc(NC(=S)*)cc21

Columns and labels:
Settings in all cases: both partners purified
USP7 MATH domain = USP7 MATH domain (human, UniProt Q93009 68-195)
G3BP1 NTF2 domain = G3BP1 NTF2 domain (human, UniProt Q13283 11-133)
G3BP2 NTF2 domain = target: T1, G3BP2 NTF2 domain (human, UniProt Q9UN86 11-133)
T1 sequence (looked up): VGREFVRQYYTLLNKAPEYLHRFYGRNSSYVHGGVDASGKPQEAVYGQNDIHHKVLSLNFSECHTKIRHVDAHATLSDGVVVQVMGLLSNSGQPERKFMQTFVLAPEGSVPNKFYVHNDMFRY

Ezrin FERM domain [1] = target: T2, Ezrin FERM domain (human, UniProt P15311 2-296)
T2 construct: also called EZR FERM
T2 sequence (P15311 2-296): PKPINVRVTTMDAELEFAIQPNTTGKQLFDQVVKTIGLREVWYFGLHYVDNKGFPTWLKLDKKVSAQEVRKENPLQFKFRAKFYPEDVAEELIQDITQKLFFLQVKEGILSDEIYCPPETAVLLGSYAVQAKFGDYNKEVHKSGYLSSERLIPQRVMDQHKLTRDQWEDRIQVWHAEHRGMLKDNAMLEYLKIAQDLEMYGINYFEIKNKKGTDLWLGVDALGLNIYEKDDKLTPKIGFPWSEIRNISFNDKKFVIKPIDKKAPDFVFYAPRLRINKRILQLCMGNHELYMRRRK

Radixin FERM domain [2] = target: T3, Radixin FERM domain (human, UniProt P35241 5-295)
T3 construct: also called RDX; RDX FERM
T3 sequence (P35241 5-295): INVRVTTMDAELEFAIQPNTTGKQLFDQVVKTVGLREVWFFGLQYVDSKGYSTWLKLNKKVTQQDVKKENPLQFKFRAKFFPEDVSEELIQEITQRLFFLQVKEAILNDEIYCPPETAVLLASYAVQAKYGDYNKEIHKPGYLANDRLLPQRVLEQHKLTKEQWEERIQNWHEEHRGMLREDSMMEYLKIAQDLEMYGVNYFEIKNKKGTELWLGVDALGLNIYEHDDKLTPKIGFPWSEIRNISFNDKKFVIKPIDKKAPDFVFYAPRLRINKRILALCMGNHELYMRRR

Ezrin FERM domain [3] = target: Ezrin FERM domain (human, UniProt P15311 2-296)
Target sequence in this assay (P15311 2-296): as the sequence (P15311 2-296) above

Radixin FERM domain [4] = target: T4, Radixin FERM domain (human, UniProt P35241 5-295)
T4 construct: also called RDX
T4 sequence (P35241 5-295): as the sequence (P35241 5-295) above

[5] = target: T5, G3BP2 NTF2 domain, His-GST-tagged (human, UniProt Q9UN86 11-133)
T5 sequence (looked up): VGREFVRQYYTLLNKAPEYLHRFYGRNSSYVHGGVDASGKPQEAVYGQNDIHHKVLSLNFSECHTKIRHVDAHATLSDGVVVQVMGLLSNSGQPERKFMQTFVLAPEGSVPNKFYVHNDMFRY

[6] = target: G3BP1 NTF2 domain, His-GST-tagged (human, UniProt Q13283 11-133)
G3BP1 NTF2 domain, His-GST-tagged, sequence (Q13283 11-133): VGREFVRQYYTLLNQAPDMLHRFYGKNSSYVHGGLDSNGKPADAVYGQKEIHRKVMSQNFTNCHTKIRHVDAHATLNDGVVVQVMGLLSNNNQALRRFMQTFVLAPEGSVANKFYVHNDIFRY

G3BP1 NTF2 domain, sequence (Q13283 11-133): as above
USP7 MATH domain, sequence (Q93009 68-195): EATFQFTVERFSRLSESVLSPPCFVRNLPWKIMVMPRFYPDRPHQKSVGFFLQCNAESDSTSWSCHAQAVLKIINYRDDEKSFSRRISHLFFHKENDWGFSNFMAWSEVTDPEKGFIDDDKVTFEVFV

Binder | IC50 (G3BP1 NTF2 domain) | IC50 (G3BP2 NTF2 domain) | Ki (G3BP2 NTF2 domain) | further results
{FITC}-DYSQPSTSSSIIY (also called MDM2 probe peptide) [MDM2 FITC-DYSQPSTSSSIIY] |  |  |  | Kd (USP7 MATH domain): 490 ± 60 nM
APRAVTFGDNNDNNTY [N peptide 6-20 (Mers1)] | 130 µM | 80 µM |  | Ki (G3BP1 NTF2 domain): 51 µM
ESLPFSFGTLSSWELE [DDIT3 peptide 4-19] |  | 30 µM | 12 µM | 
{FITC}-YYSVNTFKEHHSTPTI (also called Kirrel probe peptide) [Kirrel FITC-YYSVNTFKEHHSTPTI] |  |  |  | Kd (Ezrin FERM domain [1]): 1400 ± 100 nM; Kd (Radixin FERM domain [2]): 485 ± 3 nM
QGLPLEFGASAETVRY [NSP3 peptide 958-972 (Sars-CoV)] | 320 µM | 130 µM | 47 µM | Ki (G3BP1 NTF2 domain): 119 µM
VDTSNSFEVLAVEDTQY [NSP3 peptide 1996-2011 (Sars-CoV)] |  |  |  | IC50 (Ezrin FERM domain [3]): 200 µM; Ki (Ezrin FERM domain [3]): 218 µM; IC50 (Radixin FERM domain [4]): 200 µM; Ki (Radixin FERM domain [4]): 56.2 µM
AQMQGPYNFIQDSMLD [CAPRIN1 peptide 364-379] |  | 29 µM |  | 
PSKLPTFGAPEQLVDY [TRIM25 peptide 400-414] | 120 µM | 53 µM | 17 µM | Ki (G3BP1 NTF2 domain): 46 µM
{FITC}-YYSVNTFKEHHSTPTI [FITC-Kirrel3 peptide 668-683] |  |  |  | Kd (Radixin FERM domain [4]): 485 nM
PVPPIEFGVSPKDSDY [PRRC2B peptide 1780-1794] |  | 53 µM | 19 µM | 
APRITFGGPTDSTDNY [N peptide 13-27 (Sars-CoV)] | 10 µM |  |  | 
NLQFGALQFGSEPVY [UBAP2L peptide 515-528] | 104 µM | 79 µM | 32 µM | 
{FITC}-APRITFGGPSDS [N FITC-APRITFGGPSDS] |  |  |  | Kd [5]: 2100 ± 100 nM; Kd [6]: 3.2 ± 0.1 µM
